Measured values published in patent US20220135694A1, “NOVEL CD40-BINDING ANTIBODIES” (LAVA THERAPEUTICS B.V., priority 2019, published 2022).

Biological target: T1, human CD40 (CD40-transfected HEK293T cells) (Homo sapiens, UniProt P25942)
T1 construct: expressed in transfected cells; host or cells: HEK293T
Assay: Bispecific VHH binding to CD40-transfected HEK293T cells, anti-llama IgG flow cytometry
Conditions: 1 μM; FIG. 5
Protocol: The embryonic kidney cell line HEK293T, either wildtype (WT) or transfected with human CD40, was grown in complete DMEM.
To assess VHH binding, cells were incubated with V19S76K-5C8 (1 μM) or medium control for 30 minutes at 37° C. Bound VHH was detected by incubation with FITC-conjugated goat-anti-llama IgG-heavy and light chain antibodies (A160-100F, Bethyl Laboratories Inc., Montgomery, Tex., USA) for 20 minutes at 4° C.
After 48 hours, cells were analyzed by flow cytometry as described in Example 2.

T1 sequence (P25942 21-277): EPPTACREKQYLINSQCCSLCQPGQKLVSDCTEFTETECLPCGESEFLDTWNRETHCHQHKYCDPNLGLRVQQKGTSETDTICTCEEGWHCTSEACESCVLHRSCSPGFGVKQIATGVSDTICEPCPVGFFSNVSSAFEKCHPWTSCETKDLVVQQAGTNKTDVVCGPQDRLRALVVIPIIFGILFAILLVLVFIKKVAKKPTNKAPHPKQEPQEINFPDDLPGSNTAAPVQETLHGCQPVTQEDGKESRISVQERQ

B1: V19S76K-5C8: tag-less bispecific anti-CD40-anti-Vγ9Vδ2-TCR VHH, SEQ ID NO:23 (protein)
VHH: QVQLQESGGGLVQAGGSLRLSCAASGRTFGRSAMGWFRQAPGKEREFVAAIGTRGGSTKYADSVKGRFTISTDNAKNTVYLQMDSLKPEDTAVYRCAVRGPGYPSAAIFQDEYHYWGQGTQVTVSSGGGGSEVQLVESGGGLVQAGGSLRLSCAASGRPFSNYAMGWFRQAPGKEREFVAAISWSGGSTSYADSVKGRFTISRDNAKNTVYLQMNSPKPEDTAIYYCAAQFSGADYGFGRLGIRGYEYDYWGQGTQVTVSS
modifications: antibody sequence
binding to CD40-expressing HEK293T cells: binds to the CD40-expressing HEK293T cells
